Tests used:
[1] = test system: Human mPB CD34+ cells; assay: Proliferative activity on human granulocyte progenitors (flow cytometry); format: cell-based; conditions: for Number of CD45RA− CD41−: 7 days
Experimental: Human mPB CD34^+ cells were purchased from AllCells. Cells were resuspended in HSC expansion medium (StemSpan SFEM, StemCell Technologies) supplemented with 1× antibiotics and the following recombinant human cytokines thrombopoietin, IL6, Flt3 ligand, and stem cell factor (100 ng/mL, R & D Systems), then plated in 96-well plates (1000 cells per well), with varied concentrations of BLV1H12-bGCSF fusion antibodies. Cells were cultured for 7 days at 37° C. in a 5% CO2 incubator, then analyzed by flow cytometry to measure cell number and expression of CD45ra and CD41. Cells were stained in staining medium (HBSS supplemented with 2% FBS and 2 mM EDTA) at 4° C. for 1 h with PECy7 anti-CD45ra and eFluor 450 anti-CD41 (eBiosciences), then washed with staining medium and analyzed. Multicolor analysis for cell phenotyping was performed on a LSR II flow cytometer (Becton Dickinson). FIGS. 10A-10E and Tables 9-10 show the human granulocyte progenitor cell proliferative activities of the Ab-GCSF fusion antibodies.

[2] = Pharmacokinetics of BLV1H12-bGCSF fusion antibodies in mice; format: in vivo; conditions: BALB/c mice, 70 μg injected
Experimental: For PK study in mice, 70 μg of the immunoglobulin constructs described herein were injected into 3 BALB/c mice per group. Blood samples were drawn from time 0 to 14 days with extended intervals and analyzed by ELISA using anti-human IgG Fc antibody with horseradish peroxidase (HRP) labeled (KPL) and anti-6×His antibody with HRP labeled (Clontech). Data were normalized by taking maximal concentration at the first time point (30 min).

[3] = test system: mice neutrophils; assay: Neutrophils counts in mice; format: in vivo; conditions: mice blood, 10th day post-injection, neutrophils among white blood cells
Experimental: On the 10th day after injection of BLV1H12-bGCSF fusion antibodies into mice for PK study, blood samples were drawn from the mice and stained using the Diff Quick Staining Kit (Thermo Fisher Scientific, IL). Neutrophils and white blood cells were counted under microscope and the percentages of neutrophils were analyzed. FIGS. 12A-12B and Table 12 show proliferative activities of BLV1H12-bGCSF fusion antibodies on mice neutrophils that are blood stained and counted at the 10th day post-injection.

[4] = test system: human peripheral blood mononuclear cells (PBMCs); assay: Inhibition of human PBMC activation (secreted TNF-α ELISA); format: cell-based; conditions: PBMCs activated by anti-CD3 and CD28 antibodies, 24 h
Experimental: Human PBMCs were isolated from fresh venous blood of healthy donors through ficoll gradient centrifugation, followed by resuspension in RPMI1640 medium with 10% FBS and plating in 96-well plates at a density of 1×10^6 cells/mL. Human T cells were purified from the isolated PBMCs using T cell enrichment kit. Purified PBMCs and T cells were pretreated for 1 h at 37° C. with 5% CO2 with various concentrations of purified BLV1H12-Moka1 fusion antibodies and then activated by anti-CD3 and CD28 antibodies. After 24 h treatment, supernatant was collected for measurement of the levels of secreted TNF-α using ELISA kit.

[5] = molecular target: T1, CXCR1-U2OS (Homo sapiens, UniProt P25024); assay: Flow cytometry binding to CXCR1 expressing cells; conditions: CXCR1-U2OS cells, cell culture supernatant containing expressed IgG, anti-Human Fc detection
T1 construct: host or cells: U2OS-derived CXCR1 cell line, purchased
T1 sequence (P25024 1-350): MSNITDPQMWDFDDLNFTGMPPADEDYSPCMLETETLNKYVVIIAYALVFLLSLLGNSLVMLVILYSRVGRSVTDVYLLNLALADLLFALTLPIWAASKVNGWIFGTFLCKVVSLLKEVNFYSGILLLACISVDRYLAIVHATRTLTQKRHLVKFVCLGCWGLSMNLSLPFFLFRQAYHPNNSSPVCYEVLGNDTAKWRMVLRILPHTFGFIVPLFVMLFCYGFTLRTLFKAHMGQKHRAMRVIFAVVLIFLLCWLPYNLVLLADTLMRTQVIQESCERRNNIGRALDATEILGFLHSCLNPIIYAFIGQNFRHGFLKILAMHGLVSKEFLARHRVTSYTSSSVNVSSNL
Experimental: (§1) Briefly, a cell line expressing functionally validated CXCR1 derived from U2OS cells was obtained from DiscoveRx and cultured per manufacturer's instructions (Cat#93-0226C3, DiscoveRx Corporation, Freemont, Calif.). The parental cell line U20S was obtained from ATCC and cultured under the same conditions as the CXCR1 cells. Cell culture supernatants from Example 2 above were then tested for binding to cells by flow cytometry. The adherent U20S or CXCR1-U20S cells were dissociated with Accutase (Innovative Cell Technologies, Inc., San Diego, Calif.), neutralized with an equal volume of media containing 10% serum, centrifuged at 1000 g, and resuspended in PBS with 2% BSA. Next, cells were dispensed into microtiter plates to achieve between 30,000 to 300,000 cells per well, centrifuged again, and resuspended in cell culture supernatant containing expressed IgG, or a dilution of IgG-containing cell culture supernatant. A fluorescent-conjugated anti-Human Fc antibody was used to detect binding of the expressedBLV1H12-IL8 fusion proteins to cells.

[6] = test system: Parental U2OS; assay: Flow cytometry binding to parental cells; conditions: cell culture supernatant containing expressed IgG, anti-Human Fc detection
Experimental: as §1

B1: Ab: bovine BLV1H12 antibody with ultralong CDR3, no inserted polypeptide; heavy chain SEQ ID NO: 24, light chain SEQ ID NO: 23 (antibody)
heavy: QVQLRESGPSLVKPSQTLSLTCTASGFSLSDKAVGWVRQAPGKALEWLGSIDTGGNTGYNPGLKSRLSITKDNSKSQVSLSVSSVTTEDSATYYCTSVHQETKKYQSCPDGYRERSDCSNRPACGTSDCCRVSVFGNCLTTLPVSYSYTYNYEWHVDVWGQGLLVTVSS
light: QAVLNQPSSVSGSLGQRVSITCSGSSSNVGNGYVSWYQLIPGSAPRTLIYGDTSRASGVPDRFSGSRSGNTATLTISSLQAEDEADYFCASAEDSSSNAVFGSGTTLTVLGQPKSPPSVTLFPPSTEELNGNKATLVCLISDFYPGSVTVVWKADGSTITRNVETTRASKQSNSKYAASSYLSLTSSDWKSKGSYSCEVTHEGSTVTKTVKPSECS
human granulocyte progenitor cell proliferative activity [1]: lack of proliferative activity
Number of CD45RA− CD41− ([1]; 0.28959 ng/mL): 3666
Number of CD45RA− CD41− ([1]; 0.86877 ng/mL): 3839
Number of CD45RA− CD41− ([1]; 2.60631 ng/mL): 3852
Number of CD45RA− CD41− ([1]; 23.45679 ng/mL): 3519
Number of CD45RA− CD41− ([1]; 70.37037 ng/mL): 3541
Number of CD45RA− CD41− ([1]; 211.11111 ng/mL): 3606
Number of CD45RA− CD41− ([1]; 5700 ng/mL): 4100
Percentage (normalized to maximal concentration at the first time point, 30 min) ([2]; day 0.021): 100.00%
Percentage (normalized to maximal concentration at the first time point, 30 min) ([2]; day 0.042): 106.09%
Percentage (normalized to maximal concentration at the first time point, 30 min) ([2]; day 0.083): 95.88%
Percentage (normalized to maximal concentration at the first time point, 30 min) ([2]; day 0.125): 86.54%
Percentage (normalized to maximal concentration at the first time point, 30 min) ([2]; day 0.250): 74.26%
Percentage (normalized to maximal concentration at the first time point, 30 min) ([2]; day 1.000): 52.43%
Percentage (normalized to maximal concentration at the first time point, 30 min) ([2]; day 2.000): 39.46%
Percentage (normalized to maximal concentration at the first time point, 30 min) ([2]; day 3.000): 36.97%
Percentage (normalized to maximal concentration at the first time point, 30 min) ([2]; day 8.000): 45.44%
Percentage (normalized to maximal concentration at the first time point, 30 min) ([2]; day 10.000): 40.98%
Percentage (normalized to maximal concentration at the first time point, 30 min) ([2]; day 14.000): 51.96%
Percentage of Neutrophil [3]: 18.81
F.I. (secreted TNF-α, ELISA) ([4]; 2 nM): 2334
F.I. (secreted TNF-α, ELISA) ([4]; 20 nM): 2186
F.I. (secreted TNF-α, ELISA) ([4]; 200 nM): 1982
F.I. (secreted TNF-α, ELISA) ([4]; 400 nM): 1733
Median Arbitrary Fluorescence Units (AFU) [5]: 4 AFU
Median Arbitrary Fluorescence Units (AFU) [6]: 4 AFU
